Data: paper PMC3680461, “Diversity of Plant Methionine Sulfoxide Reductases B and Evolution of a Form Specific for Free Methionine Sulfoxide” (PLoS ONE, 2013)
Numbering of substitutions follows the chain as printed. Values belong to the molecule of their own block, whether it stands above or below them.

Columns and labels:
GmMSRB4 = molecular target: T1, GmMSRB4 (Glycine max, UniProt I1ME37); assay: NADPH consumption, TRX-coupled; format: biochemical; settings: 25 µM yeast TRX2, 2 µM TRX reductase, 200 µM NADPH; S/R mixture used, Km given as half of measured value; read-out: Free L-MetO / Km (μM)^c
T1 construct: gene LOC100784622; without predicted N-terminal chloroplast signal peptide (predicted TP length 67), pET21b His-tag, E. coli BL21(DE3), purified
T1 sequence (I1ME37 68-204): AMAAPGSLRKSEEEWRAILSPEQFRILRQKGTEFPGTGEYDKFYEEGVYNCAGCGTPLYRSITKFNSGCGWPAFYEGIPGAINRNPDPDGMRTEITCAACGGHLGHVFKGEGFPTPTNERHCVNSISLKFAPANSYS
Excerpt: (§1) NADPH consumption, TRX-coupled on GmMSRB4

GmMSRB2 [1] = molecular target: T2, GmMSRB2 (Glycine max, UniProt C6SXW1); assay: NADPH consumption, TRX-coupled; format: biochemical; settings: 25 µM yeast TRX2, 2 µM TRX reductase, 200 µM NADPH; S/R mixture used, Km given as half of measured value; read-out: Free L-MetO / Km (μM)^c
T2 construct: full-length, pDEST17 His-tag, E. coli BL21(DE3), purified; cytosolic (no signal peptide predicted)
T2 sequence (C6SXW1 1-138): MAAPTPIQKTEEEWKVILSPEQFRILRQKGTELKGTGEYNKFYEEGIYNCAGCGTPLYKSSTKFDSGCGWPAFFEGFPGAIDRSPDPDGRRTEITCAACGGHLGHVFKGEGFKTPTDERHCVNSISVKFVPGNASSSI
Excerpt: (§2) NADPH consumption, TRX-coupled on GmMSRB2

GmMSRB2 [2] = molecular target: T3, GmMSRB2 (Glycine max, UniProt C6SXW1, C68S); assay: DTT-dependent MSR activity; format: biochemical; settings: DTT as reductant
T3 construct: full-length, pDEST17 His-tag, E. coli BL21(DE3), purified; cytosolic (no signal peptide predicted)
T3 sequence (C6SXW1 1-138 C68S): T2 sequence (C6SXW1 1-138) with C68S

GmMSRB1 = molecular target: T4, GmMSRB1 (Glycine max, UniProt C6TFD8); assay: DTT-dependent MSR activity; format: biochemical; settings: DTT as reductant
T4 construct: without predicted N-terminal chloroplast signal peptide (predicted TP length 45), pET21b His-tag, E. coli BL21(DE3), purified
T4 sequence (C6TFD8 46-202): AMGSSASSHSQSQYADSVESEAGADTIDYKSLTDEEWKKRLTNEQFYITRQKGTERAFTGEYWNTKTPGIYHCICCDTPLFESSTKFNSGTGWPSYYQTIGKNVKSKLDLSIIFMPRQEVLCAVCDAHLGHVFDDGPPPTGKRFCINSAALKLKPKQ

[3] = substrate: CC(=O)N[C@@H](CC[S+](C)[O-])C(=O)O; assay: NADPH consumption, TRX-coupled; format: biochemical, Glycine max; settings: 25 µM yeast TRX2, 2 µM TRX reductase, 200 µM NADPH
Excerpt: as §1

[4] = substrate: CC(=O)N[C@@H](CC[S+](C)[O-])C(=O)O; assay: NADPH consumption, TRX-coupled; format: biochemical, Glycine max; settings: 25 µM yeast TRX2, 2 µM TRX reductase, 200 µM NADPH; remark: listed apart in the source
Excerpt: as §2

Km (GmMSRB4): 1450 µM | Km (GmMSRB2 [1]): 2090 µM
Molecule: Free L-MetO

Molecule: CN(C)c1ccc(/N=N/c2ccc(S(=O)(=O)N[C@@H](CC[S@@+](C)[O-])C(=O)O)cc2)cc1 [dabsyl-MetO]
DTT-dependent MSR activity (GmMSRB2 [2]): the C68S GmMSRB2 mutant was active towards both protein-based and free MetO | DTT-dependent MSR activity (GmMSRB1): GmMSRB1 was two-fold more efficient than GmMSRB2 or GmMSRB4 in reducing dabsylated Met-R-O

B1: GmMSRB4 (Glycine max) (protein)
chain: T1 sequence (I1ME37 68-204)
notes: without predicted N-terminal chloroplast signal peptide (predicted TP length 67), pET21b His-tag, E. coli BL21(DE3), purified
Km [3]: 49 ± 6 µM | kcat [3]: 0.24 ± 0.01 s⁻¹ | kcat/Km [3]: 5000 M⁻¹ s⁻¹

B2: GmMSRB2 (Glycine max) (protein)
chain: T2 sequence (C6SXW1 1-138)
notes: full-length, pDEST17 His-tag, E. coli BL21(DE3), purified; cytosolic (no signal peptide predicted)
Km [4]: 49 ± 5 µM | kcat [4]: 2.04 ± 0.06 s⁻¹ | kcat/Km [4]: 42000 M⁻¹ s⁻¹
